T1: Recombinant human CD123 SP1 ECD-His tag protein (human, UniProt P26951 20-305)
T1 construct: bought from R&D Systems (#301-R3/CF); biotinylated for some assays; also called rhCD123 SP1; huCD123 ECD SP1
T1 sequence: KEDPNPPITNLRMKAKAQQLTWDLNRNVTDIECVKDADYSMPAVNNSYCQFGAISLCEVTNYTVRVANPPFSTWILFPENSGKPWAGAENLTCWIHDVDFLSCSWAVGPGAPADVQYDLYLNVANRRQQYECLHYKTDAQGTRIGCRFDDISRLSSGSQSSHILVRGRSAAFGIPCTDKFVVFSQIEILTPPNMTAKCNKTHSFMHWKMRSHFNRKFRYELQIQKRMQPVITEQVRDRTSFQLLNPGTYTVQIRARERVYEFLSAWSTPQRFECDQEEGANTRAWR

T2: Recombinant human CD123 SP2 ECD protein (human, UniProt P26951 101-303)
T2 construct: also called rhCD123 SP2; CD123 ECD SP2
T2 sequence: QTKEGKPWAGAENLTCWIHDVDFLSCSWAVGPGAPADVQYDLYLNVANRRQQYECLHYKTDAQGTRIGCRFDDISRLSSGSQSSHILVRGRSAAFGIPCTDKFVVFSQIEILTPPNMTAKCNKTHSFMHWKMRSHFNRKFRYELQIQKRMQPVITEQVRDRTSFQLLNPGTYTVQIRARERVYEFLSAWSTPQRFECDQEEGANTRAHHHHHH

T3: cyno CD123 ECD displayed on pDisplay-transfected cells (cynomolgus monkey)
T3 construct: ECD anchored on the surface of stably transfected HEK293 cells; also called cynoCD123 SP1 cells; cynoCD123 cells
T3 chain: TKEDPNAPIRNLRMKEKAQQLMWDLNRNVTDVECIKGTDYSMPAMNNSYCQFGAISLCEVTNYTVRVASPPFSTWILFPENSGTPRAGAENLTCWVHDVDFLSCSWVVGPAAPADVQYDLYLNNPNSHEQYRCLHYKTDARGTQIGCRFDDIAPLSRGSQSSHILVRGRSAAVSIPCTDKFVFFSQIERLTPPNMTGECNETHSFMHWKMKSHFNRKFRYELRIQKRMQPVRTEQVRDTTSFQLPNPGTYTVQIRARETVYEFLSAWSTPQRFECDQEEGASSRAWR

T4: human CD123 SP2 ECD displayed on pDisplay-transfected cells (human, UniProt P26951 101-305)
T4 construct: ECD anchored on the surface of stably transfected HEK293 cells; also called hCD123 SP2 cells; pDisplay CD123SP2
T4 sequence: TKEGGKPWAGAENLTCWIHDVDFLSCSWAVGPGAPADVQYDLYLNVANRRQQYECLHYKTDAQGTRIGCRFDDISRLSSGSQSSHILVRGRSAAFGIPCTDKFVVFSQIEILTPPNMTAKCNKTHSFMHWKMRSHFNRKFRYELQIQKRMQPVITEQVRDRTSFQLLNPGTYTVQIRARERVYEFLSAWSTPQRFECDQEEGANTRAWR

B1: I3RB11 (antibody, IgG1, V domains shown)
VH: QVQLVQSGAEVKKPGSSVKVSCKASGGTFSSYGISWVRQAPGQGLEWMGGIIPIFGTANYAQKFQGRVTITADESTSTAYMELSSLRSEDTAVYYCARDLFSWRYSNFDYWGQGTLVTVSS
VL: not shown
notes: IgG1
B2: I3RB6 (antibody, IgG1, V domains shown)
VH: QVQLVQSGAEVKKPGSSVKVSCKASGGTFSSYAISWVRQAPGQGLEWMGGIIPIFGTANYAQKFQGRVTITADESTSTAYMELSSLRSEDTAVYYCARGLFNWSNVALDYWGQGTLVTVSS
VL: not shown
notes: IgG1; also called I3RB06
B3: I3RB38 (antibody, IgG1, V domains shown)
VH: QVQLVQSGAEVKKPGSSVKVSCKASGGTFSSYGISWVRQAPGQGLEWMGGIIPIFGTANYAQKFQGRVTITADESTSTAYMELSSLRSEDTAVYYCARDLMIWRFENFDYWGQGTLVTVSS
VL: not shown
notes: IgG1
B4: I3RB34 (antibody, IgG1, V domains shown)
VH: QVQLVQSGAEVKKPGSSVKVSCKASGGTFSSYAISWVRQAPGQGLEWMGGIIPIFGTANYAQKFQGRVTITADESTSTAYMELSSLRSEDTAVYYCARGWSYYRLDYWGQGTLVTVSS
VL: EIVLTQSPATLSLSPGERATLSCRASQSVDKWLAWYQQKPGQAPRLLIYYASNRATGIPARFSGSGSGTDFTLTISSLEPEDFAVYYCQQFDRAPFTFGQGTKVEIK
notes: IgG1; also called 13RB34
B5: I3RB22 (antibody, IgG1, V domains shown)
VH: QVQLVQSGAEVKKPGSSVKVSCKASGGTFSSYAISWVRQAPGQGLEWMGGIIPIFGTANYAQKFQGRVTITADESTSTAYMELSSLRSEDTAVYYCARNLFYWADSVYLDYWGQGTLVTVSS
VL: EIVLTQSPATLSLSPGERATLSCRASQSVNKWLAWYQQKPGQAPRLLIYYASNRATGIPARFSGSGSGTDFTLTISSLEPEDFAVYYCQQGIDWPRTFGQGTKVEIK
notes: IgG1
B6: I3RB9 (antibody, IgG1, V domains shown)
VH: QVQLVQSGAEVKKPGSSVKVSCKASGGTFSSYAISWVRQAPGQGLEWMGGIIPIFGTANYAQKFQGRVTITADESTSTAYMELSSLRSEDTAVYYCARGARWFNPPENLDYWGQGTLVTVSS
VL: not shown
notes: IgG1; also called I3RB09
B7: I3RB7 (antibody, IgG1, V domains shown)
VH: QVQLVQSGAEVKKPGSSVKVSCKASGGTFSSYAISWVRQAPGQGLEWMGGIIPIFGTANYAQKFQGRVTITADESTSTAYMELSSLRSEDTAVYYCARGKRWLADAGDFDYWGQGTLVTVSS
VL: not shown
notes: IgG1; also called I3RB07
B8: I3RB24 (antibody, IgG1, V domains shown)
VH: QVQLVQSGAEVKKPGSSVKVSCKASGGTFSSYAISWVRQAPGQGLEWMGGIIPIFGTANYAQKFQGRVTITADESTSTAYMELSSLRSEDTAVYYCARHTDAWGYRLDYWGQGTLVTVSS
VL: not shown
notes: IgG1
B9: I3RB12 (antibody, IgG1, V domains shown)
VH: QVQLVQSGAEVKKPGSSVKVSCKASGGTFSSYAISWVRQAPGQGLEWMGGIIPIFGTANYAQKFQGRVTITADESTSTAYMELSSLRSEDTAVYYCARADRVWDYYLDYWGQGTLVTVSS
VL: not shown
notes: IgG1
B10: I3RB29 (antibody, IgG1, V domains shown)
VH: QVQLVQSGAEVKKPGSSVKVSCKASGGTFSSYAISWVRQAPGQGLEWMGGIIPIFGTANYAQKFQGRVTITADESTSTAYMELSSLRSEDTAVYYCARDSRIWSFSLDYWGQGTLVTVSS
VL: DIQMTQSPSSLSASVGDRVTITCRASQSIGEWLNWYQQKPGKAPKLLIYAASSLQSGVPSRFSGSGSGTDFTLTISSLQPEDFATYYCQQYYHFPLTFGQGTKVEIK
notes: IgG1

What was measured:
[1] = biological target: T1, Recombinant human CD123 SP1 ECD-His tag …; experiment: SPR ProteOn, captured mAb
Description: (§1) The biosensor surface was prepared by covalently coupling Goat anti-Human IgG (Fc) to the surface of a GLC chip (BioRad) using the manufacturer instructions for amine-coupling chemistry. […] The RU immobilized also included a goat anti-mouse Fc antibody that was added to capture other antibodies not included in the ones reported here. Since the mixture was 1:1 about 50% of these RU immobilized are expected to be goat anti-human Fc. The kinetic experiments were performed at 25° C. in running buffer (PBS pH 7.4, 0.005% P20, 3 mM EDTA). […] The reference spots (Goat anti-Human IgG (Fc)-modified surface) containing no candidate captured were used as a reference surface. Capture of mAb was followed by 3 min injection (association phase) of antigen at 40 μL/min, followed by 10 min of buffer flow (dissociation phase). […] Data was processed on the instrument software. Double reference subtraction of the data was performed by subtracting the curves generated by buffer injection from the reference-subtracted curves for analyte injections. Kinetic analysis of the data was performed using 1:1 Langmuir binding model with group fit. The result for each mAb was reported in the format of Kₐ (kon or on-rate), Kd (koff or off-rate), KD (Equilibrium dissociation constant) (Table 5).

[2] = biological target: T2, Recombinant human CD123 SP2 ECD protein; experiment: SPR ProteOn, captured mAb
Description: as §1

[3] = biological target: T3, cyno CD123 ECD displayed on …; experiment: MSD cell binding on 293F pDisplay cells; fold change over background; parental 293F cells as control
Description: (§2) The object of the screening assay was to identify antibodies that bound to cells expressing hCD123 SP1 and SP2 as well as cross reactivity with cells expressing cynoCD123 SP1.
(§3) Cells were immobilized and phages were assayed in triplicate. […] 5000 cells per well were plated into a 384 well plate (MA6000, cat. L21XB, MSD) and allowed to adhere for 2 hr. Cells were then blocked with 20% FBS in PBS (Gibco) for 15 mins. Antibody supernatants were then added and left at RT for 1 hr. Cells were washed 3 times with PBS and a ruthenium labeled secondary antibody (Jackson Immuno Research) was then added at 1 μg/mL and incubated for 1 hr at room temperature. A further washing step was then applied and 35 μL per well of MSD Read buffer T (surfactant free) was then added and incubated for 30 min for detection. Plates were then read using Sector Imager 2400 (MSD). Data was normalized to controls and graphed using GraphPad Prism Version 5. A positive binder was determined to be a hit with a signal 3× greater than background (FIGS. 2A, B and C).

[4] = biological target: T4, human CD123 SP2 ECD displayed on …; experiment: as above
Description: as §2, §3

Binder | Kd [1] | koff [1] | kon [1] | binding result [2] | binding result [3] | binding result [4]
B1 | 2.89 nM | 0.00253 s⁻¹ | 874000 M⁻¹ s⁻¹ | no binding (tested: 400 nM) | no binding (tested: 10 µg/mL) | no binding (tested: 10 µg/mL)
B2 | 11.5 nM | 0.00593 s⁻¹ | 514000 M⁻¹ s⁻¹ | no binding (tested: 400 nM) | no binding (tested: 10 µg/mL) | no binding (tested: 10 µg/mL)
B3 | 0.49 nM | 0.000434 s⁻¹ | 888000 M⁻¹ s⁻¹ | no binding (tested: 400 nM) |  | no binding (tested: 10 µg/mL)
B4 | 56.8 nM | 0.0283 s⁻¹ | 497000 M⁻¹ s⁻¹ | no binding (tested: 400 nM) | binds | no binding (tested: 10 µg/mL)
B5 | 4.12 nM | 0.00106 s⁻¹ | 257000 M⁻¹ s⁻¹ | no binding (tested: 400 nM) | no binding (tested: 10 µg/mL) | no binding (tested: 10 µg/mL)
B6 | 12.4 nM | 0.00843 s⁻¹ | 680000 M⁻¹ s⁻¹ | no binding (tested: 400 nM) | no binding (tested: 10 µg/mL) | no binding (tested: 10 µg/mL)
B7 | 15.4 nM | 0.0147 s⁻¹ | 954000 M⁻¹ s⁻¹ | no binding (tested: 400 nM) |  | no binding (tested: 10 µg/mL)
B8 | 201 nM | 0.226 s⁻¹ | 1.13e+06 M⁻¹ s⁻¹ | no binding (tested: 400 nM) | no binding (tested: 10 µg/mL) | no binding (tested: 10 µg/mL)
B9 | 9.61 nM | 0.0078 s⁻¹ | 812000 M⁻¹ s⁻¹ | no binding (tested: 400 nM) | no binding (tested: 10 µg/mL) | no binding (tested: 10 µg/mL)
B10 | 5.9 nM | 0.00132 s⁻¹ | 224000 M⁻¹ s⁻¹ | no binding (tested: 400 nM) |  | no binding (tested: 10 µg/mL)

Reference: US20160068605A1 (Janssen / Centocor, published 2016)
